Measured values published in patent US20220363757A1 (SYMPHOGEN A S, published 2022).
Numbering of substitutions follows the chain as printed.

T1: human LAG-3 domain 1-2 Fc fusion, chimeric construct #9 (mutated region AA 66-71) (human, UniProt P18627 23-266)
T1 construct: not shown: human IgG1 Fc, AA P101-K330
T1 chain: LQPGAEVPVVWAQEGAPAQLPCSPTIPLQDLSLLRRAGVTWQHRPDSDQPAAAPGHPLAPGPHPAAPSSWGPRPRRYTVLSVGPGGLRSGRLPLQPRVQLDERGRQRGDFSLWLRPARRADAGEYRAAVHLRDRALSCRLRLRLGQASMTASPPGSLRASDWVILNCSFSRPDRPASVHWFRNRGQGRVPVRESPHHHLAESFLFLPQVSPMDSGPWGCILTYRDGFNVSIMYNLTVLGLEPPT

T2: human LAG-3 domain 1-2 Fc fusion, chimeric construct #8 (mutated region AA 59-66) (human, UniProt P18627 23-266)
T2 construct: not shown: human IgG1 Fc, AA P101-K330
T2 chain: T1 chain with A37G, G38W, D48G, Q49P

T3: human LAG-3 domain 1-2 Fc fusion, chimeric construct #14 (mutated region AA 88-97) (human, UniProt P18627 23-266)
T3 construct: not shown: human IgG1 Fc, AA P101-K330
T3 chain: T1 chain with R44Q, D48G, Q49P, A66M, S69T, W70R, G71R, P72H, R73P, R75H

T4: human LAG-3 domain 1-2 Fc fusion, chimeric construct #5 (mutated region AA 46-51) (human, UniProt P18627 23-266)
T4 construct: not shown: human IgG1 Fc, AA P101-K330
T4 chain: T1 chain with P24L, T25E, I26F, L28H, Q29L, R44Q, D48G, Q49P

T5: human LAG-3 domain 1-2 Fc fusion, chimeric construct #7 (mutated region AA 53-60) (human, UniProt P18627 23-266)
T5 construct: not shown: human IgG1 Fc, AA P101-K330
T5 chain: T1 chain with L31P, S32N, L33F, A37G, G38W, R44Q, D48G, Q49P

T6: human LAG-3 domain 1-2 Fc fusion, chimeric construct #19 (mutated region AA 118-127) (human, UniProt P18627 23-266)
T6 construct: not shown: human IgG1 Fc, AA P101-K330
T6 chain: T1 chain with R44Q, D48G, Q49P, P96S, R97H, D101E, E102K, R105P

T7: human LAG-3 domain 1-2 Fc fusion, chimeric construct #26 (mutated region AA 157-161) (human, UniProt P18627 23-266)
T7 construct: not shown: human IgG1 Fc, AA P101-K330
T7 chain: T1 chain with R44Q, D48G, Q49P, A135D, L136F, R139S

T8: human LAG-3 domain 1-2 Fc fusion, chimeric construct #24 (mutated region AA 148-154) (human, UniProt P18627 23-266)
T8 construct: not shown: human IgG1 Fc, AA P101-K330
T8 chain: T1 chain with R44Q, D48G, Q49P, R126H, A128F, H130R, R132P

T9: human LAG-3 domain 1-2 Fc fusion, chimeric construct #3 (mutated region AA 40-41) (human, UniProt P18627 23-266)
T9 construct: not shown: human IgG1 Fc, AA P101-K330
T9 chain: T1 chain with A18V, Q19H, R44Q, D48G, Q49P

B1: Fab fragment of antibody 15572 (Fab, V domains shown, not shown: a dimerising Fc or GST)
VH: QLQLQESGPGLVKPSETLSLTCTVSGDSISSSSYYWGWIRQPPGKGLEWIGSIFYSGNTYYNPSLKSRVTISVDTSKNQFSLKLSSVTAADTAVYYCAREDDFLTDYYGAFDIWGQGTMVTVSS
VL: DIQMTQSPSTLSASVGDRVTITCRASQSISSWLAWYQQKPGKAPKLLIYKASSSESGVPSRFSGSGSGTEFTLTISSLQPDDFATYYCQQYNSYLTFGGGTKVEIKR
notes: monomeric Fab made by GingisKHAN digestion of the IgG1
B2: Fab fragment of antibody 15532 (Fab, V domains shown, not shown: a dimerising Fc or GST)
VH: QVQLQQWGAGLLRPSETLSLTCAVYGESFSGYYWNWIRQPPGKGLEWIGEINHSGSTNYNPSLKSRVTISVDTSKTQFSLKLSSVTAADTAVYYCARGWDLLDWNDYWNEYWGQGTLVTVSS
VL: EIVLTQSPATLSLSPGERATLSCRASQSVSSYLAWYQQKPGQAPRLLIYDASNRATGIPARFSGSGSGTDFTLTISSLEPEDFAVYYCQQRSNWPLTFGGGTKVEIKR
notes: as for B1
B3: Fab fragment of antibody 15431 (Fab, V domains shown, not shown: a dimerising Fc or GST)
VH: QVQLQQSGPGLVKPSQTLSLTCAISGDSVSSNSAAWNWIRQSPSRGLEWLGRTYYRSKWYNDYAVSVKSRITINPDTSKNQFSLQLNSVTPEDTAVYYCARDDDWNDFDYWGQGTLVTVSS
VL: B2 VL
notes: as for B1
B4: Fab fragment of antibody 15011 (Fab, V domains shown, not shown: a dimerising Fc or GST)
VH: EVQLLESGGGLVQPGGSLRLSCAASGFDFRSYAMMWVRQAPGKGLEWVGGINGEVGGSNTYYAPAVKGRATISRDNSKNTLYLQMNSLRAEDTAVYYCVKGAGACGICNDDIDAWGQGTLVTVSS
VL: SYELTQDPAVSVALGQTVRITCSGAGSYAGSYYYGWHQQKPGQAPVTVIYDNDKRPSNIPDRFSGSSSGNTASLTITGAQAEDEADYYCGSTNDNDDGGLFGSGTKVTVLG
notes: as for B1

Assays:
Assay in all cases: SPR, Fab over captured mutant LAG-3-Fc;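 note: LAG-3 fusion proteins captured on an anti-human IgG Fc sensor chip and read on an IBIS MX96 biosensor, Fab association and dissociation each 15 min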
[1] = molecular target: T1, human LAG-3 domain 1-2 Fc fusion, …
Experimental: (§1) The LAG-3 fusion proteins were immobilized onto a G-a-hu-IgG Fc SensEye® (Ssens BV, The Netherlands) for 15 minutes using a Continuous Flow Microspotter (CFM, Wasatch Microfluidics, Salt Lake City, US). After spotting, the SensEye® was positioned in an IBIS MX96 biosensor and captured proteins were evaluated for binding affinity. […] Fab association was performed for 15 minutes and antigen dissociation was performed for 15 minutes. The recorded binding responses were fitted to a simple Langmuir 1:1 binding model with Scrubber 2 software for calculation of the on-rate (kon or ka), off-rate (koff or kd) and affinity (KD) constants.

[2] = molecular target: T2, human LAG-3 domain 1-2 Fc fusion, …
Experimental: as §1

[3] = molecular target: T3, human LAG-3 domain 1-2 Fc fusion, …
Experimental: as §1

[4] = molecular target: T4, human LAG-3 domain 1-2 Fc fusion, …
Experimental: as §1

[5] = molecular target: T5, human LAG-3 domain 1-2 Fc fusion, …
Experimental: as §1

[6] = molecular target: T6, human LAG-3 domain 1-2 Fc fusion, …
Experimental: as §1

[7] = molecular target: T7, human LAG-3 domain 1-2 Fc fusion, …
Experimental: as §1

[8] = molecular target: T8, human LAG-3 domain 1-2 Fc fusion, …
Experimental: as §1

[9] = molecular target: T9, human LAG-3 domain 1-2 Fc fusion, …
Experimental: as §1

KD mutant/KD wild type [1]	binding result [2]	KD mutant/KD wild type [3]	binding result [4]	binding result [5]	binding result [6]	binding result [7]	binding result [8]	binding result [9]	KD mutant/KD wild type [2]	binding result [3]	KD mutant/KD wild type [4]	KD mutant/KD wild type [5]	KD mutant/KD wild type [6]	KD mutant/KD wild type [7]	KD mutant/KD wild type [8]	KD mutant/KD wild type [9]	Binder
1.1 fold	no binding (tested: 300 nM)	0.7 fold	no binding (tested: 300 nM)	no binding (tested: 300 nM)	no binding (tested: 300 nM)	no binding (tested: 300 nM)	no binding (tested: 300 nM)	no binding (tested: 300 nM)	–	–	–	–	–	–	–	–	B1
3.9 fold	–	–	–	–	–	–	–	–	2.7 fold	no binding (tested: 300 nM)	2.7 fold	3.4 fold	0.5 fold	1.1 fold	2.6 fold	2.2 fold	B2
0.4 fold	no binding (tested: 300 nM)	–	no binding (tested: 300 nM)	no binding (tested: 300 nM)	–	–	–	no binding (tested: 300 nM)	–	no binding (tested: 300 nM)	–	–	0.5 fold	0.6 fold	10.6 fold	–	B3
0.7 fold	–	0.6 fold	–	–	–	–	–	–	0.5 fold	–	0.5 fold	0.5 fold	0.6 fold	0.7 fold	1.9 fold	0.5 fold	B4
